Experimental findings from article PMC6557901, “Rif1 S-acylation mediates DNA double-strand break repair at the inner nuclear membrane” are described below.

The target in this data set is T1, Rif1 NTD (100-1322) wild-type (Saccharomyces cerevisiae, UniProt P29539 100-1322).
T1 sequence: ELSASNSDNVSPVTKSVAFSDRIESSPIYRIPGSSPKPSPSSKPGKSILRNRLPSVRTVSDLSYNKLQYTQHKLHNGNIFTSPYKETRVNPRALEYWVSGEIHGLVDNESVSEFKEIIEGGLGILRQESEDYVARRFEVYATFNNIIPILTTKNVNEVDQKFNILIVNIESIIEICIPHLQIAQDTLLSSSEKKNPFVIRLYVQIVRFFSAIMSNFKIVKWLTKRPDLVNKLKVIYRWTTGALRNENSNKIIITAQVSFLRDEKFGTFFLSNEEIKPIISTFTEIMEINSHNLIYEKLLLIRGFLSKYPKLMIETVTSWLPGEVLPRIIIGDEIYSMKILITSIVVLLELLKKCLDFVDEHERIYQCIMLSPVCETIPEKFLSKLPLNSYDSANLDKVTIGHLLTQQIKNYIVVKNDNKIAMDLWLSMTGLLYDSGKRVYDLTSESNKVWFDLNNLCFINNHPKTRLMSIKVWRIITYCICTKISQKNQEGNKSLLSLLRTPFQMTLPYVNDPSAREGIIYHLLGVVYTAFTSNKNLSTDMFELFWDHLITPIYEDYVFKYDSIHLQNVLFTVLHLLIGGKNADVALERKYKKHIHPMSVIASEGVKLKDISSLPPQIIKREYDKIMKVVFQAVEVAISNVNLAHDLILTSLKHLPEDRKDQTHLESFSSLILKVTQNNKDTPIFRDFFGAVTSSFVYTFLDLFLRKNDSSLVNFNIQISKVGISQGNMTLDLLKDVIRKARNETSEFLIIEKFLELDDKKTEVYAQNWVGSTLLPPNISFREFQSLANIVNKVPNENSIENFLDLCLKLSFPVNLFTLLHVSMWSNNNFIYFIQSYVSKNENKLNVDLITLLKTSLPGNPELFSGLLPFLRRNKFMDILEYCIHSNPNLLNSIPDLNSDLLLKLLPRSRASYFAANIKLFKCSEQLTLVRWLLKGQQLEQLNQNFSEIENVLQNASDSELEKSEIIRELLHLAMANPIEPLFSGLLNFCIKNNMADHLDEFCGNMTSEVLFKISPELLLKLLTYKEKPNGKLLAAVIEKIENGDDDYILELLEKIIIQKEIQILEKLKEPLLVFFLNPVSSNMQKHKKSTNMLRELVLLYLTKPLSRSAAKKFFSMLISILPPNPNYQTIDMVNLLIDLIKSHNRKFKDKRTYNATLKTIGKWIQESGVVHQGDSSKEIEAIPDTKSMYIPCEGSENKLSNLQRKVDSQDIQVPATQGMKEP
As to the kind of experiment: EMSA; protein 10-160 nM, DNA 1 nM; 20 mM Tris-HCl pH 8.0, 100 mM NaCl, 2.5 mM MgCl2, 10 mM CaCl2, 0.1 mg/ml BSA, 1 mM TCEP, 30 min at 20 °C; 1.2% agarose gel, 0.5x TBE, 4 °C. As to conditions: protein: recombinant; tags: N-terminal Strep(II); label: 5'-32P on EMSA1; blunt. On the technique in general: Mobility shift assays separate free from complexed probe on a gel.

B1: 30 bp dsDNA (EMSA1/EMSA2) (dsDNA)
DNA 1: TAGCAAGGCACTGGTAGAATTCGGCAGCGT
DNA 2: ACGCTGCCGAATTCTACCAGTGCCTTGCTA
For B1, the binding result was “binds”.
